Columns and labels:
[1] = biological target: matuzumab HC_20.8.34_B + matuzumab LC (IgG1); experiment: LCMS, IgG1 BsAb co-expression in HEK293F
[2] = biological target: matuzumab HC_20.8.37_B + matuzumab LC (IgG1); experiment: LCMS, IgG1 BsAb co-expression in HEK293F
[3] = biological target: matuzumab HC_20.8_B + matuzumab LC (IgG1); experiment: LCMS, IgG1 BsAb co-expression in HEK293F
[4] = biological target: matuzumab HC_20.8.34_B + matuzumab LC (IgG1); experiment: LCMS, IgG1 BsAb co-expression; HCA/HCB heterodimer carrying two LC2
[5] = biological target: matuzumab HC_20.8.37_B + matuzumab LC (IgG1); experiment: as above
[6] = biological target: matuzumab HC_20.8_B + matuzumab LC (IgG1); experiment: as above
[7] = biological target: matuzumab HC_20.8.34_B + matuzumab LC (IgG1); experiment: LCMS, IgG1 BsAb co-expression; HCA/HCB heterodimer carrying two LC1
[8] = biological target: matuzumab HC_20.8.37_B + matuzumab LC (IgG1); experiment: as above
[9] = biological target: matuzumab HC_20.8_B + matuzumab LC (IgG1); experiment: as above
[10] = biological target: matuzumab HC_7.8.60_B + matuzumab LC (IgG4 HC backbone); experiment: LCMS, IgG4 BsAb co-expression; HCA/HCB heterodimer carrying two LC1
[11] = biological target: matuzumab HC_7.8.60_B + matuzumab LC (IgG4 HC backbone); experiment: LCMS, IgG4 BsAb co-expression; HCA/HCB heterodimer carrying two LC2
[12] = LCMS, IgG4 BsAb co-expression; HCA homodimer species
[13] = biological target: matuzumab HC_7.8.60_B + matuzumab LC (IgG4 HC backbone); experiment: LCMS, IgG4 BsAb co-expression in HEK293F
[14] = biological target: matuzumab HC_20.8.34_B + matuzumab LC (IgG4 HC backbone); experiment: LCMS, IgG4 BsAb co-expression; HCA/HCB heterodimer carrying two LC1
[15] = biological target: matuzumab HC_20.8.34_B + matuzumab LC (IgG4 HC backbone); experiment: LCMS, IgG4 BsAb co-expression; HCA/HCB heterodimer carrying two LC2
[16] = biological target: matuzumab HC_20.8.34_B + matuzumab LC (IgG4 HC backbone); experiment: LCMS, IgG4 BsAb co-expression in HEK293F
[17] = biological target: T1, HA-tagged human IgG1 Fc portion with CH3 mutations Y349S, K370Y, T366V, K409V; experiment: UPLC SEC of protein G-purified one-arm antibody co-expressed in HEK293F
T1 chain: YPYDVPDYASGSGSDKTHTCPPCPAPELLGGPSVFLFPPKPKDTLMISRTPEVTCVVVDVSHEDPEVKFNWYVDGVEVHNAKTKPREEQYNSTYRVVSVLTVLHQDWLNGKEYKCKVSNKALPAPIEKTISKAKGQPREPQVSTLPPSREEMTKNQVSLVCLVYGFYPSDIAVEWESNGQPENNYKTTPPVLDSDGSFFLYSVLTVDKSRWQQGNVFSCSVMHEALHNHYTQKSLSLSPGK

[18] = biological target: T2, HA-tagged human IgG1 Fc portion with CH3 mutations Y349S, K370Y, T366M, K409V; experiment: as above
T2 chain: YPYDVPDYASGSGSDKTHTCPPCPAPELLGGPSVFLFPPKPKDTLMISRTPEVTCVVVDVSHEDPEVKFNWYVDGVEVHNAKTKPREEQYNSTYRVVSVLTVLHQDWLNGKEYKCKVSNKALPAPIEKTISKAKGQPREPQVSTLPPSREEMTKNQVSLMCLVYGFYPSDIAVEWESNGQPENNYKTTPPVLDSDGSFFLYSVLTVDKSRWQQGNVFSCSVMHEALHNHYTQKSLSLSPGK

B1: MetMAb HC_20.8.26_A + MetMAb LC (IgG1) (protein)
chain 1: EVQLVESGGGLVQPGGSLRLSCAASGYTFTSYWLHWVRKAPGKGLEWVGMIDPSNSDTRFNPEFKDRFTISADTSKNTAYLQMNSLRAEDTAVYYCATYRSYVTPLDYWGQGTLVTVSSASTKGPSVFPLAPSSKSTSGGTAALGCLVKDYFPEPVTVSWNSGALTSGVATGPAVLQSSGLYSLSSVVTVPSSSLGTQTYICNVNHKPSNTKVDKKVEPKSCDKTHTCPPCPAPELLGGPSVFLFPPKPKDTLMISRTPEVTCVVVDVSHEDPEVKFNWYVDGVEVHNAKTKPREEQYQSTYRVVSVLTVLHQDWLNGKEYKCKVSNKALPAPIEKTISKAKGQPREPQVSTLPPSREEMTKNQVSLMCLVYGFYPSDIAVEWESNGQPENNYKTTPPVLDSDGSFFLYSVLTVDKSRWQQGNVFSCSVMHEALHNHYTQKSLSLSPGK
chain 2: RIQMTQSPSSLSASVGDRVTITCKSSQSLLYTSSQKNYLAWYQDKPGKAPKLLIYWASTRESGVPSRFSGSGSGTDFTLTISSLQPEDFATYYCQQYYAYPWTFGQGTKVEIKGQPKAAPSVTLFPPSSEELQANKATLVCYISDFYPGAVTVAWKADSSPVKAGVETTTPSKQSNNKYAAWSYLSLTPEQWKSHRSYSCQVTHEGSTVEKTVAPTEC
With B1 the % AB (LC1/LC2) (correct IgG BsAb assembly) [1] was 95.8%, the % AB (LC1/LC2) (correct IgG BsAb assembly) [2] was 79.1% and the % AB (LC1/LC2) (correct IgG BsAb assembly) [3] was 58.6%. For the same protein, the % AB (2x LC2) (incorrect assembly) [4] was 4.2%, the % AB (2x LC2) (incorrect assembly) [5] was 20.9% and the % AB (2x LC2) (incorrect assembly) [6] was 33.3%. The % AB (2x LC1) (incorrect assembly) [7] was 0%, the % AB (2x LC1) (incorrect assembly) [8] was 0% and the % AB (2x LC1) (incorrect assembly) [9] was 0%.

B2: MetMAb HC_7.8.60_A + MetMAb LC (IgG4 HC backbone) (protein)
chain 1: EVQLVESGGGLVQPGGSLRLSCAASGYTFTSYWLHWVRKAPGKGLEWVGMIDPSNSDTRFNPEFKDRFTISADTSKNTAYLQMNSLRAEDTAVYYCATYRSYVTPLDYWGQGTLVTVSSASTKGPSVFPLAPCSRSTSESTAALGCLVKDYFPEPVTVSWNSGALTSGVATGPAVLQSSGLYSLSSVVTVPSSSLGTKTYTCNVDHKPSNTKVDKRVESKYGPPCPPCPAPEAAGGPSVFLFPPKPKDTLMISRTPEVTCVVVDVSQEDPEVQFNWYVDGVEVHNAKTKPREEQFQSTYRVVSVLTVLHQDWLNGKEYKCKVSNKGLPSSIEKTISKAKGQPREPQVYTLPPSQEEMTDNQVSLTCLVKGFYPSDIAVEWESNGQPENNYKTTPPVLMSDGSFFLASRLTVDKSRWQEGNVFSCSVMHEALHNHYTQKSLSLSLG
chain 2: RIQMTQSPSSLSASVGDRVTITCKSSQSLLYTSSQKNYLAWYQDKPGKAPKLLIYWASTRESGVPSRFSGSGSGTDFTLTISSLQPEDFATYYCQQYYAYPWTFGQGTKVEIKGQPKAAPSVTLFPPSSEELQANKATLVCYISDFYPGAVTVAWKADSSPVKAGVETTTPSKQSNNKYAAWSYLSLTPEQWKSHRSYSCQVTHEGSTVEKTVAPTEC
In the case of B2, the % AB (2x LC1) (incorrect assembly) [10] is reported as 0%, the % AB (2x LC2) (incorrect assembly) [11] is reported as 0% and the % AA Homodimer (incorrect assembly) [12] is reported as 0%. For the same protein, the % AB (LC1/LC2) (correct IgG BsAb assembly) [13] was 100%.

B3: MetMAb HC_20.8.34_A + MetMAb LC (IgG4 HC backbone) (protein)
chain 1: EVQLVESGGGLVQPGGSLRLSCAASGYTFTSYWLHWVRKAPGKGLEWVGMIDPSNSDTRFNPEFKDRFTISADTSKNTAYLQMNSLRAEDTAVYYCATYRSYVTPLDYWGQGTLVTVSSASTKGPSVFPLAPCSRSTSESTAALGCLVKDYFPEPVTVSWNSGALTSGVATGPAVLQSSGLYSLSSVVTVPSSSLGTKTYTCNVDHKPSNTKVDKRVESKYGPPCPPCPAPEAAGGPSVFLFPPKPKDTLMISRTPEVTCVVVDVSQEDPEVQFNWYVDGVEVHNAKTKPREEQFQSTYRVVSVLTVLHQDWLNGKEYKCKVSNKGLPSSIEKTISKAKGQPREPQVSTLPPSQEEMTKNQVSLMCLVYGFYPSDIAVEWESNGQPENNYKTTPPVLDSDGSFFLYSVLTVDKSRWQEGNVFSCSVMHEALHNHYTQKSLSLSLG
chain 2: RIQMTQSPSSLSASVGDRVTITCKSSQSLLYTSSQKNYLAWYQDKPGKAPKLLIYWASTRESGVPSRFSGSGSGTDFTLTISSLQPEDFATYYCQQYYAYPWTFGQGTKVEIKGQPKAAPSVTLFPPSSEELQANKATLVCYISDFYPGAVTVAWKADSSPVKAGVETTTPSKQSNNKYAAWSYLSLTPEQWKSHRSYSCQVTHEGSTVEKTVAPTEC
For B3, the % AB (2x LC1) (incorrect assembly) [14] was 0%, the % AB (2x LC2) (incorrect assembly) [15] was 0% and the % AA Homodimer (incorrect assembly) [12] was 0%. It also gave a % AB (LC1/LC2) (correct IgG BsAb assembly) [16] of 100%.

B4: anti-c-Met 5D5 VH-human IgG1 HC with CH3 mutations E356G, E357D, S364Q, Y407A, with 5D5 light chain (protein)
chain 1: EVQLVESGGGLVQPGGSLRLSCAASGYTFTSYWLHWVRQAPGKGLEWVGMIDPSNSDTRFNPNFKDRFTISADTSKNTAYLQMNSLRAEDTAVYYCATYRSYVTPLDYWGQGTLVTVSSASTKGPSVFPLAPSSKSTSGGTAALGCLVKDYFPEPVTVSWNSGALTSGVHTFPAVLQSSGLYSLSSVVTVPSSSLGTQTYICNVNHKPSNTKVDKRVEPKSCDKTHTCPPCPAPELLGGPSVFLFPPKPKDTLMISRTPEVTCVVVDVSHEDPEVKFNWYVDGVEVHNAKTKPREEQYNSTYRVVSVLTVLHQDWLNGKEYKCKVSNKALPAPIEKTISKAKGQPREPQVYTLPPSRGDMTKNQVQLTCLVKGFYPSDIAVEWESNGQPENNYKTTPPVLDSDGSFFLASKLTVDKSRWQQGNVFSCSVMHEALHNHYTQKSLSLSPGK
chain 2: DIQMTQSPSSLSASVGDRVTITCKSSQSLLYTSSQKNYLAWYQQKPGKAPKLLIYWASTRESGVPSRFSGSGSGTDFTLTISSLQPEDFATYYCQQYYAYPWTFGQGTKVEIKRTVAAPSVFIFPPSDEQLKSGTASVVCLLNNFYPREAKVQWKVDNALQSGNSQESVTEQDSKDSTYSLSSTLTLSKADYEKHKVYACEVTHQGLSSPVTKSFNRGEC
For B4, the % heterodimer (UPLC) [17] was 92% and the % heterodimer (UPLC) [18] was 94%.

— patent publication US20180009908
